The test addresses Insulin Receptor (Isoform B by the title of Table 1; 'the A isoform of the insulin receptor' by the text) (UniProt P06213). Kind of test: competitive displacement of radiolabelled tracer; relative to wild-type human insulin.
Substance “GlyA21 derivative of AspB10, 2F-PheB24, LysB28, ProB29-human insulin (T-0346) (ligand)” yielded a relative affinity of 59%.
To “GluA8 derivative of AspB10, 2F-PheB24, LysB28, ProB29-human insulin (T-0338) (ligand)” belongs 52%; to “GluA8 derivative of AspB10, ortho-fluoro-PheB24, GluB29-insulin (T-0339) (ligand)”, 43%.
“GlyA21 derivative of AspB10, ortho-fluoro-PheB24, GluB29-insulin (T-0347) (ligand)” gave a relative affinity of 42%.
For “GluA8, GlyA21 derivative of AspB10, 2F-PheB24, GluB29-human insulin (T-0348) (ligand)”, the relative affinity is 44%.

(Values after patent US20170304361A1.)
